Results published in patent US20150368338A1 (Janssen / Centocor, published 2015).

T1: IFN-αF (human, UniProt P01568 24-189)
T1 chain: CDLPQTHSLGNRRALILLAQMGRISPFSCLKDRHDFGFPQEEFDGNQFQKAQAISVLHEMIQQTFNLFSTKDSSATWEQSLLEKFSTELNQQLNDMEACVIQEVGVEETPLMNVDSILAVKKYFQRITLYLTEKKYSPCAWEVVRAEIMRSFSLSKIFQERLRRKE


Key:
Experiment in all cases: cell-based or functional assay
[1] = molecular target: IFN-αH2 (human, UniProt P01570 24-189)
[2] = molecular target: IFN-αC (human, UniProt P01566 24-189)
[3] = molecular target: T1, IFN-αF
[4] = molecular target: IFN-αG (human, UniProt P01569 24-189)

| IC50, ISRE assay [1] [pM] | IC50, ISRE assay [2] [pM] | IC50, ISRE assay [3] [pM] | IC50, ISRE assay [4] [pM] | Binder |
| --- | --- | --- | --- | --- |
| 33 | 98 | 48 | 27 | IFWM3331 (antibody, IgG1, V domains shown) VH: EVQLVQSGAEVKKPGESLKISCKGSGYSFTSYWIGWVRQMPGKGLEWMGIIDPSDSDTRYSPSFQGQVTISADKSISTAYLQWSSLKASDTAMYYCARHPGLNWAPDFDYWGQGTLVTVSS VL: DIQMTQSPSSLSASVGDRVTITCRASQSIDNSYLNWYQQKPGKAPKLLIYGASSLQSGVPSRFSGSGSGTDFTLTISSLQPEDFATYYCQQGWDWPLTFGQGTKVEIK |
| 88 | 583 | 170 | 95 | IFWM3307 (antibody, IgG1, V domains shown) VH: EVQLVQSGAEVKKPGESLKISCKGSGYSFTSYWIGWVRQMPGKGLEWMGIIDPSDSDTRYSPSFQGQVTISADKSISTAYLQWSSLKASDTAMYYCARHPGLNWAPDFDYWGQGTLVTVSS VL: DIQMTQSPSSLSASVGDRVTITCRASQSIGDFLNWYQQKPGKAPKLLIYFASSLQSGVPSRFSGSGSGTDFTLTISSLQPEDFATYYCQQALDFPLTFGQGTKVEIK |
| 42 | 117 | 62 | 47 | IFWM3304 (antibody, IgG1, V domains shown) VH: EVQLVQSGAEVKKPGESLKISCKGSGYSFTSYWIGWVRQMPGKGLEWMGIIDPSDSDTRYSPSFQGQVTISADKSISTAYLQWSSLKASDTAMYYCARHPGLNWAPDFDYWGQGTLVTVSS VL: DIQMTQSPSSLSASVGDRVTITCRASQSIGSALNWYQQKPGKAPKLLIYFASSLQSGVPSRFSGSGSGTDFTLTISSLQPEDFATYYCQQSYDFPLTFGQGTKVEIK |
| 8 | 20 | 11 | 18 | IFWM3421 (antibody, IgG1, V domains shown) VH: EVQLVQSGAEVKKPGESLKISCKGSGYSFTSYWIGWVRQMPGKGLEWMGIIDPSDSDTRYSPSFQGQVTISADKSISTAYLQWSSLKASDTAMYYCARHPGLNWAPDFDYWGQGTLVTVSS VL: DIQMTQSPSSLSASVGDRVTITCRASQSIDGFLNWYQQKPGKAPKLLIYFASSLQSGVPSRFSGSGSGTDFTLTISSLQPEDFATYYCQQSYDLPITFGQGTKVEIK |

Continued, binder first:

| Binder | IC50, ISRE assay [1] [pM] | IC50, ISRE assay [2] [pM] | IC50, ISRE assay [3] [pM] | IC50, ISRE assay [4] [pM] |
| --- | --- | --- | --- | --- |
| IFWM3423 (antibody, IgG1, V domains shown) VH: EVQLVQSGAEVKKPGESLKISCKGSGYSFTSYWIGWVRQMPGKGLEWMGIIDPSDSDTRYSPSFQGQVTISADKSISTAYLQWSSLKASDTAMYYCARHPGLAWAPDFDYWGQGTLVTVSS VL: DIQMTQSPSSLSASVGDRVTITCRASQSIDGFLNWYQQKPGKAPKLLIYFASSLQSGVPSRFSGSGSGTDFTLTISSLQPEDFATYYCQQSYDLPITFGQGTKVEIK | 4 | 12 | 8 | 9 |
| IFWM371 (antibody, IgG1, V domains shown) VH: EVQLVQSGAEVKKPGESLKISCKGSGYSFTSYWIGWVRQMPGKGLEWMGIIDPSDSDTRYSPSFQGQVTISADKSISTAYLQWSSLKASDTAMYYCARHPGLNWAPDFDYWGQGTLVTVSS VL: not shown | 9600 | 53900 | 16000 | 12900 |
| IFWM3332 (antibody, IgG1, V domains shown) VH: EVQLVQSGAEVKKPGESLKISCKGSGYSFTSYWIGWVRQMPGKGLEWMGIIDPSDSDTRYSPSFQGQVTISADKSISTAYLQWSSLKASDTAMYYCARHPGLNWAPDFDYWGQGTLVTVSS VL: DIQMTQSPSSLSASVGDRVTITCRASQSIANTNLNWYQQKPGKAPKLLIHWASSLQSGVPSRFSGSGSGTDFTLTISSLQPEDFATYYCQQWYDNPLTFGQGTKVEIK | 92 | 479 | 228 | 99 |
